The text below walks through data of patent US20220229068A1, “DETECTION OF PROTEIN TO PROTEIN INTERACTIONS” (THE GOVERNING COUNCIL OF THE UNIVERSITY OF TORONTO, priority 2019, published 2022).

Common to all, as to experiment: SIMPL ELISA, bait-IN/prey-CIC
A general note: An ELISA detects its analyte on a solid surface through an enzyme-linked reagent.

The target in test [1] is NFE2L1 (prey, CIC format) (human) (UniProt Q14494).
The target of test [2] is TNFRSF10B (prey, CIC format) (human) (UniProt O14763).
In test [3] the target is T1, PEX11B (prey, CIC format) (human) (UniProt O96011).
T1 sequence (looked up): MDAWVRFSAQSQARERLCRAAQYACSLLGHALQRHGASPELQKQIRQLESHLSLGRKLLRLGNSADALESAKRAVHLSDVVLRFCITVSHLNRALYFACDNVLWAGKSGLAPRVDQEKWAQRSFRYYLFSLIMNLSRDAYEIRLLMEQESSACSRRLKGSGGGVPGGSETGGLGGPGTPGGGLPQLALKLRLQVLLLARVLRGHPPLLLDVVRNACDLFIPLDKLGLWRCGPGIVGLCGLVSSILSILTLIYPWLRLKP

Test [4] addresses GRB2 (prey, CIC format) (human) (UniProt P62993).
The target of test [5] is BCL2L1 (prey, CIC format) (human) (UniProt Q07817).
The target in test [6] is ARHGAP1 (prey, CIC format) (human) (UniProt Q07960).
Test [7] has as its target ZBTB16 (prey, CIC format) (human) (UniProt Q05516).
For test [8], the target named is CCNA1 (prey, CIC format) (human) (UniProt P78396).
Test [9] has as its target T2, S100B (prey, CIC format) (human) (UniProt P04271).
T2 sequence (looked up): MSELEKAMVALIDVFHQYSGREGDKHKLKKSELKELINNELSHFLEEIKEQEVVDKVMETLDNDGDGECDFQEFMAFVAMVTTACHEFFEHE

Test [10] deals with MCM3 (prey, CIC format) (human) (UniProt P25205).
For test [11], the target named is T3, MCM5 (prey, CIC format) (human) (UniProt P33992).
T3 sequence (looked up): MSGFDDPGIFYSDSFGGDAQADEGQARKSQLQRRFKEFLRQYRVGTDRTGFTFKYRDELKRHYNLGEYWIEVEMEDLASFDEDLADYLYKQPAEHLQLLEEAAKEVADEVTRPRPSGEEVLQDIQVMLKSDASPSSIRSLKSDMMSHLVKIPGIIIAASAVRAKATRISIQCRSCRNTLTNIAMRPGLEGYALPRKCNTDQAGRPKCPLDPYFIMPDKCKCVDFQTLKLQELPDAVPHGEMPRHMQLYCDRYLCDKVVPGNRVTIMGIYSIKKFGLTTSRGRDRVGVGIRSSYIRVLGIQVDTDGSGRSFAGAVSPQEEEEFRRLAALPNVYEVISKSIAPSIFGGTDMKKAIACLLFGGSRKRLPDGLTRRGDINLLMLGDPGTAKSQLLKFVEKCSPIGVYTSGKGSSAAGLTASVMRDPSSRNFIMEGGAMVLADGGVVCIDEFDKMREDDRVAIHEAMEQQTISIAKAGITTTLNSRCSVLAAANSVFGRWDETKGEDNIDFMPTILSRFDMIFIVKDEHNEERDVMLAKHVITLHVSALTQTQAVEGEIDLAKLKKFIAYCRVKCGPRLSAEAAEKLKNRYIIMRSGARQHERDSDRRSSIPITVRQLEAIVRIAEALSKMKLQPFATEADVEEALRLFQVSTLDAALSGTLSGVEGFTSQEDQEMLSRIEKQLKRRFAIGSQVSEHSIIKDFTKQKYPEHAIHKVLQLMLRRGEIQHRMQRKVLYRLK

The target of test [12] is T4, DRAP1 (prey, CIC format) (human) (UniProt Q14919).
T4 sequence (looked up): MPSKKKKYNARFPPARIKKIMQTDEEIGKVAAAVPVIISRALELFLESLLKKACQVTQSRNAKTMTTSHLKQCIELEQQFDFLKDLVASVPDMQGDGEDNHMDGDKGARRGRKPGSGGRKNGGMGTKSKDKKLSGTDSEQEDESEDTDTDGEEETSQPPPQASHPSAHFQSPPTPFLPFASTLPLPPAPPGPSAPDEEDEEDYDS

Test [13] concerns the target CKS1B (prey, CIC format) (human) (UniProt P61024).
In test [14] the target is T5, RB1 (prey, CIC format) (human) (UniProt P06400).
T5 sequence (looked up): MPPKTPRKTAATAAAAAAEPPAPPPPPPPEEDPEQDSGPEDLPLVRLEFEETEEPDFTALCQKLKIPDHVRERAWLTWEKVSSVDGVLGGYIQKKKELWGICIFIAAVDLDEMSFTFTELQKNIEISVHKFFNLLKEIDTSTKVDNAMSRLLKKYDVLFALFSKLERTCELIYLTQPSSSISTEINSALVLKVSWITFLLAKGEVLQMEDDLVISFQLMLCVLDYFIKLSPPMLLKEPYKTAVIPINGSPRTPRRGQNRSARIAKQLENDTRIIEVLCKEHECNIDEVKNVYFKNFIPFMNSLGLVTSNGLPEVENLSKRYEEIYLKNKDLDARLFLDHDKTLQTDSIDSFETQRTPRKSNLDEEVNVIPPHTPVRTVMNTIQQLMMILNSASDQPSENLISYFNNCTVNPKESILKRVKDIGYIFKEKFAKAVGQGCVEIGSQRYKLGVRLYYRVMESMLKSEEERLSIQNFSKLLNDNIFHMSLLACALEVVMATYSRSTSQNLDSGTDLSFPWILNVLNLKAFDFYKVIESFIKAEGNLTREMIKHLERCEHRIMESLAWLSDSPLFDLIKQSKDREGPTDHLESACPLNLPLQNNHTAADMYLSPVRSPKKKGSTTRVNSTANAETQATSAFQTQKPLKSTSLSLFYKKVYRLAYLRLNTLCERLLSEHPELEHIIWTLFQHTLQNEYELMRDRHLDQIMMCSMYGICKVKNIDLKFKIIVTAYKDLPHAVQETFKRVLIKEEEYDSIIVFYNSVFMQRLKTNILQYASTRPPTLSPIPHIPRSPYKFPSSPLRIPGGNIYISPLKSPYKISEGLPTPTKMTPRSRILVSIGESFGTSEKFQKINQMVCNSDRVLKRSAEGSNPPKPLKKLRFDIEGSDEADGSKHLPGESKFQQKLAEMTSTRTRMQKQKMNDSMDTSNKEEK

The target in test [15] is T6, LAT (prey, CIC format) (human) (UniProt O43561).
T6 sequence (looked up): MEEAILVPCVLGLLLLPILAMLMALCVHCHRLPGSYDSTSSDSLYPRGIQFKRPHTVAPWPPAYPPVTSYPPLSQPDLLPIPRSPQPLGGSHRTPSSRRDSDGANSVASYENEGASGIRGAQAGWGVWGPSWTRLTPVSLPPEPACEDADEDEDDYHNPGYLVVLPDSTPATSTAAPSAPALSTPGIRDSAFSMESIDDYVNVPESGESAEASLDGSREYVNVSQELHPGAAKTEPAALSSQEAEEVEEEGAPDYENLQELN

Test [16] has as its target PPP3R1 (prey, CIC format) (human) (UniProt P63098).
Test [17] has as its target PCNA (prey, CIC format) (human) (UniProt P12004).
Test [18] has as its target DDIT3 (prey, CIC format) (human) (UniProt P35638).
Test [19] has as its target T7, NRG1 (prey, CIC format) (human) (UniProt Q02297).
T7 sequence (looked up): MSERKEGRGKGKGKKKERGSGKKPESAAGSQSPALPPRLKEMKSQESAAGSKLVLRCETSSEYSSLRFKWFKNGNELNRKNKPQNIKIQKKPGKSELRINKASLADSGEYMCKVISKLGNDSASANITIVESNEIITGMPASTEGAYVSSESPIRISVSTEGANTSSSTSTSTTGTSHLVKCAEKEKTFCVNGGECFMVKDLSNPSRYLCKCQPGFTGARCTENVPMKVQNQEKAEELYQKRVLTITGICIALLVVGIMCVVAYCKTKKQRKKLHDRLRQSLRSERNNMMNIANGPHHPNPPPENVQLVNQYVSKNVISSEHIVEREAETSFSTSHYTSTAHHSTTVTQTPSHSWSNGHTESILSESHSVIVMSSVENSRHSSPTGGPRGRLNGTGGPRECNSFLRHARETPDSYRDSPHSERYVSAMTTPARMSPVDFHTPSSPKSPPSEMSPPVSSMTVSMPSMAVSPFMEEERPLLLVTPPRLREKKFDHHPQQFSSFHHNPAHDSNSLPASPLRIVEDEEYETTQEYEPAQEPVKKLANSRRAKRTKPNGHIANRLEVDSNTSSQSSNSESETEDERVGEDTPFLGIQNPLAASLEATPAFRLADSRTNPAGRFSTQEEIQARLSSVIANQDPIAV

For test [20], the target named is CD58 (prey, CIC format) (human) (UniProt P19256).
Test [21] addresses CGB5 (prey, CIC format) (human) (UniProt P0DN86).
In test [22] the target is T8, NCBP2 (prey, CIC format) (human) (UniProt P52298).
T8 sequence (looked up): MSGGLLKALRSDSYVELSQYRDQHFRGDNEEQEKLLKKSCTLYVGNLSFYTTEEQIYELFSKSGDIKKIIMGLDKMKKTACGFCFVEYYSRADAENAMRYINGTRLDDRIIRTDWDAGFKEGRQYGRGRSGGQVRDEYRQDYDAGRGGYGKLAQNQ

Test [23] addresses GRAP2 (prey, CIC format) (human) (UniProt O75791).
Test [24] has as its target T9, DCP1A (prey, CIC format) (human) (UniProt Q9NPI6).
T9 sequence (looked up): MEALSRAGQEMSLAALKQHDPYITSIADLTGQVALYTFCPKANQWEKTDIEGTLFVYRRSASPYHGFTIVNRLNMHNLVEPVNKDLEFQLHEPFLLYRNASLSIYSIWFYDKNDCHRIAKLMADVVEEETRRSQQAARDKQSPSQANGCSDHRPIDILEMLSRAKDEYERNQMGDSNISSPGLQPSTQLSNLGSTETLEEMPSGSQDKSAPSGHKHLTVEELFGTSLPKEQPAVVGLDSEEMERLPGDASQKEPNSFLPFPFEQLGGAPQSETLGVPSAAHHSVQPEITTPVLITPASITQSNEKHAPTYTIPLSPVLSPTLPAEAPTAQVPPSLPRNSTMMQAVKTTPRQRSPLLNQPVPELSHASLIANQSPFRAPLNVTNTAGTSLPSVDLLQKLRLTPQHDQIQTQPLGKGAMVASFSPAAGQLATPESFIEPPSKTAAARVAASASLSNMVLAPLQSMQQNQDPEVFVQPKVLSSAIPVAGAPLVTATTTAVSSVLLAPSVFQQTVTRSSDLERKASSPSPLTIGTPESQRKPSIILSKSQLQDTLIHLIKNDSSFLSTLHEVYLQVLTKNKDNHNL

Sequence of ZBTB16 (prey, CIC format) (human) (Q05516 whole entry): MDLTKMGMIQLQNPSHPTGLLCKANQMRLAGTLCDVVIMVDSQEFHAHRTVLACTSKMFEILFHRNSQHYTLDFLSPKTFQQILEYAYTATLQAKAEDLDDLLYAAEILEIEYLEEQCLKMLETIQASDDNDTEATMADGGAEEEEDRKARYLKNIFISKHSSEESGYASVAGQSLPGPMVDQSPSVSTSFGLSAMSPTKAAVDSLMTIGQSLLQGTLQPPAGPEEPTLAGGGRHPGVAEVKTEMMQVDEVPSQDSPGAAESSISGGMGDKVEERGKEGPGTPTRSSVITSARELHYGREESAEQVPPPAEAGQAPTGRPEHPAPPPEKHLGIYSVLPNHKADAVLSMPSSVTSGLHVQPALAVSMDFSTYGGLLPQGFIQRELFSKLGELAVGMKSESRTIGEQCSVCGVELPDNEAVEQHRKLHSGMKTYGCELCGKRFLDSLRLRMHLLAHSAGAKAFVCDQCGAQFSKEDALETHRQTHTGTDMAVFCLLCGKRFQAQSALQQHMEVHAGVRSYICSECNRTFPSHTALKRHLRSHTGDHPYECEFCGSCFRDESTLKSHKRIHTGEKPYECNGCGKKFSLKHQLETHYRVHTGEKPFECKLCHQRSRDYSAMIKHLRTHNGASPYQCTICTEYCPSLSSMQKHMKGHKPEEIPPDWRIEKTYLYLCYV
Sequence of MCM3 (prey, CIC format) (human) (P25205 whole entry): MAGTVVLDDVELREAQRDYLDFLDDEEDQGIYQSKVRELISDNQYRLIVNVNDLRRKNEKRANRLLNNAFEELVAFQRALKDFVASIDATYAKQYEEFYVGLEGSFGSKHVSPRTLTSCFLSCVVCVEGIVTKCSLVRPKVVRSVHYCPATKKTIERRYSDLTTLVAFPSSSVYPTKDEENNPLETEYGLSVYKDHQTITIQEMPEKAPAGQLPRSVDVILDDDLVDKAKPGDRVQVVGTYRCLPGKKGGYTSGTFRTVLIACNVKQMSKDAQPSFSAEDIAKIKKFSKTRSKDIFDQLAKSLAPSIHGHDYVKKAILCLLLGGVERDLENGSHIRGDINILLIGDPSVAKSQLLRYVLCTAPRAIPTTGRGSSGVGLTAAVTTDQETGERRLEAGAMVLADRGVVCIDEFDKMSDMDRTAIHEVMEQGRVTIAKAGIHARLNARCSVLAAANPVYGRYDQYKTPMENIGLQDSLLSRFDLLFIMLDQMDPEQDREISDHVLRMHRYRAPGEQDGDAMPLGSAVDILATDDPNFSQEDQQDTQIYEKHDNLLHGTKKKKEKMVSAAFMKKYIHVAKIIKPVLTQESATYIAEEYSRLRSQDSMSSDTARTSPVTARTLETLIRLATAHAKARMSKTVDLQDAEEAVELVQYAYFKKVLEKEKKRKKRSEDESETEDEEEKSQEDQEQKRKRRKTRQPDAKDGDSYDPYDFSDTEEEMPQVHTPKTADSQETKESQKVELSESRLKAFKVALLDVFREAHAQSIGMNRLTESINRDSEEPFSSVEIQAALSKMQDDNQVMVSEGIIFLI
Sequence of CCNA1 (prey, CIC format) (human) (P78396 whole entry): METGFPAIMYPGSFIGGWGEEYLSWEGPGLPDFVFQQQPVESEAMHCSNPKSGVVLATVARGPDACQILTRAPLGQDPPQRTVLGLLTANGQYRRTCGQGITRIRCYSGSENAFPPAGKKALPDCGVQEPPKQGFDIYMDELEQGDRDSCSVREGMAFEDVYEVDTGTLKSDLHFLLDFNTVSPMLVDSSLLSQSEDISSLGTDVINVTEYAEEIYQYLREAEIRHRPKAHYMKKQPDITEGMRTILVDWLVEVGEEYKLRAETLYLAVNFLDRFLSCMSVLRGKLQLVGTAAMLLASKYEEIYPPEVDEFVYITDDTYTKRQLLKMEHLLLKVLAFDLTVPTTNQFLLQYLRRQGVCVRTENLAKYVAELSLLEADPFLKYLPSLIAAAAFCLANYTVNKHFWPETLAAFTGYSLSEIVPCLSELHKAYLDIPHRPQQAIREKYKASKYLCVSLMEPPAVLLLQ
Sequence of PCNA (prey, CIC format) (human) (P12004 whole entry): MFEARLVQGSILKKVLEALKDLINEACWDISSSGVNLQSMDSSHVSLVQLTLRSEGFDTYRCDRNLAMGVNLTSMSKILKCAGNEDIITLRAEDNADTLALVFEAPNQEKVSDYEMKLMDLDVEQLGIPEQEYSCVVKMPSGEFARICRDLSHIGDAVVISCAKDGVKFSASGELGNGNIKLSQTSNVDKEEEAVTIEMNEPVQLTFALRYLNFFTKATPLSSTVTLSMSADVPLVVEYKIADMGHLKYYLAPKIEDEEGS
Sequence of CD58 (prey, CIC format) (human) (P19256 29-250 limits assumed): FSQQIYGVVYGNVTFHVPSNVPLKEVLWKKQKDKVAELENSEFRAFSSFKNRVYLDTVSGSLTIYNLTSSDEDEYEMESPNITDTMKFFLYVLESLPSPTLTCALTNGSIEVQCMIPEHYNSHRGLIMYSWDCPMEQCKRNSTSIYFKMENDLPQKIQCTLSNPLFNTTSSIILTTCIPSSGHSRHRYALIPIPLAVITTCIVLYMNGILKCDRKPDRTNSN
Sequence of GRB2 (prey, CIC format) (human) (P62993 whole entry): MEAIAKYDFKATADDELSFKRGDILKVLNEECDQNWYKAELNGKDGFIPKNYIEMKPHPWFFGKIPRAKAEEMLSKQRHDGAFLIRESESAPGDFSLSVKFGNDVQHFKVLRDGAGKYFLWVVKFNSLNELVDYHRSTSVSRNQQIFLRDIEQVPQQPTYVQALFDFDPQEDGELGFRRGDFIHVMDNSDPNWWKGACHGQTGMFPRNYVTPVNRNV
Sequence of DDIT3 (prey, CIC format) (human) (P35638 whole entry): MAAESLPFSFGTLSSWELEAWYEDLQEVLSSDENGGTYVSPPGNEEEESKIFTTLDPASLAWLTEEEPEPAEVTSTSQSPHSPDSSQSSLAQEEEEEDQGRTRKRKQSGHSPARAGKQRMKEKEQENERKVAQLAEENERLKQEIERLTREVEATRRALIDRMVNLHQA
Sequence of GRAP2 (prey, CIC format) (human) (O75791 whole entry): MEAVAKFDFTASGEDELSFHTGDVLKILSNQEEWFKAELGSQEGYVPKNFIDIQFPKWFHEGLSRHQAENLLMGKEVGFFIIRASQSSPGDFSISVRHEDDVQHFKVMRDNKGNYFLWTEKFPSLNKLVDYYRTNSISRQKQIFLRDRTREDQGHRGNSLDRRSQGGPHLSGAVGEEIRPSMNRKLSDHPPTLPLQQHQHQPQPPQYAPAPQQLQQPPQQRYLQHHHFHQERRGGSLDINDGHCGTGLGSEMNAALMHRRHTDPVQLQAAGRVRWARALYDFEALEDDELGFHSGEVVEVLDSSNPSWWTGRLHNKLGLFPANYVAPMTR
Sequence of CKS1B (prey, CIC format) (human) (P61024 whole entry): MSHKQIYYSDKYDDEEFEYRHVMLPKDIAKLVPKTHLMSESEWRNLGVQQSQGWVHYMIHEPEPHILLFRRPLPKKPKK
Sequence of BCL2L1 (prey, CIC format) (human) (Q07817 whole entry): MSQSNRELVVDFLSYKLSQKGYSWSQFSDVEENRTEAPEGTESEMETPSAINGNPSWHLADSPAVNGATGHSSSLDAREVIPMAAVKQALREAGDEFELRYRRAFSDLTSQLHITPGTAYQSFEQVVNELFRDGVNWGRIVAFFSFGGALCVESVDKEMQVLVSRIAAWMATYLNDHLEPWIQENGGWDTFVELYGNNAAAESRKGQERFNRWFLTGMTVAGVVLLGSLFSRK
Sequence of NFE2L1 (prey, CIC format) (human) (Q14494 whole entry): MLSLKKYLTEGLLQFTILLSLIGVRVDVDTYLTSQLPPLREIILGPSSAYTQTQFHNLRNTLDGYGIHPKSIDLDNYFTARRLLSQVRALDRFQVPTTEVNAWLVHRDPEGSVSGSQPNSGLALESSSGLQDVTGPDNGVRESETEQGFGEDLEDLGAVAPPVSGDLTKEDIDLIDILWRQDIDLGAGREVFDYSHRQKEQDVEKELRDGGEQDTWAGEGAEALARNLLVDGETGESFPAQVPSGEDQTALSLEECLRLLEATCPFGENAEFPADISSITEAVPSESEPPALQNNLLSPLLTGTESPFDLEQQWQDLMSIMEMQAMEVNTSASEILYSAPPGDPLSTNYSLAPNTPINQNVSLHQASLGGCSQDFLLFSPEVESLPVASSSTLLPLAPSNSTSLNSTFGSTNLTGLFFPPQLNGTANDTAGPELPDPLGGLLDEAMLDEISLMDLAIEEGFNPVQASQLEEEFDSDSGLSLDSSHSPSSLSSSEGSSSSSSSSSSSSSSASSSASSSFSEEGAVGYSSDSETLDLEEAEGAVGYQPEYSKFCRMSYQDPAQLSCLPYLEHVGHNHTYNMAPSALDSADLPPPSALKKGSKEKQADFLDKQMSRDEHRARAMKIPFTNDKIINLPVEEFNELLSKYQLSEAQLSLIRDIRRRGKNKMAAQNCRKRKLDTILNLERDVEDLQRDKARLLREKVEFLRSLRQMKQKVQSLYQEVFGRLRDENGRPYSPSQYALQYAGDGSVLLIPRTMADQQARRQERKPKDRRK
Sequence of HDAC1 (bait, IN format) (Q13547 whole entry): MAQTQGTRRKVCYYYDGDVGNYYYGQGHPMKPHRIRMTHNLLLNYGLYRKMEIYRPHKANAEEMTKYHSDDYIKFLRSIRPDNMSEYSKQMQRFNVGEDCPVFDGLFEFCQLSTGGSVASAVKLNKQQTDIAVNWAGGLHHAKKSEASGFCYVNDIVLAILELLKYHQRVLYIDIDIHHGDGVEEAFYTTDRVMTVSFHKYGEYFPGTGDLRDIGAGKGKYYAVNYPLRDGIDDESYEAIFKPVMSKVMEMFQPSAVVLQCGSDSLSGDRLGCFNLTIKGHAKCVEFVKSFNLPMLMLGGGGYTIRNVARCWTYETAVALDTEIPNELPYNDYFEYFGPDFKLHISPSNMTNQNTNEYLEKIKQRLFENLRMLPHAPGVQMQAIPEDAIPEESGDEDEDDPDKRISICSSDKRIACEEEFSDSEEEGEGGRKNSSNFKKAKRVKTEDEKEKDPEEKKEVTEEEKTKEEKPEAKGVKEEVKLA
Sequence of PPP3R1 (prey, CIC format) (human) (P63098 whole entry): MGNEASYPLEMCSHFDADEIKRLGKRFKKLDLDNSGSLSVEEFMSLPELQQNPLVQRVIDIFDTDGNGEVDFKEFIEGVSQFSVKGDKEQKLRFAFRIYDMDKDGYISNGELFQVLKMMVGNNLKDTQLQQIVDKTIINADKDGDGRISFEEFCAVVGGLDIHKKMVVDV

Turning to “MAFG (bait, IN format) (from UniProt O15525 1-162)”, the PLU mean worked out at 1.72 in [1], 0.459 in test [2] and 0.341 in [3].

As to “CBLB (bait, IN format) (from UniProt Q13191 1-982)”, the results for the PLU mean in test [4] and in [5] were 2.61 and 0.272, respectively.

With “RHOA (bait, IN format) (from UniProt P61586 1-193)”, the PLU mean is 0.486 in test [6], 0.691 in [7] and 0.36 in test [8].

On to “MCM2 (bait, IN format) (from UniProt P49736 1-904)”, for which the PLU mean in [9] came out at 0.102; in test [10], 0.938; in test [11], 0.35.

As for “CDKN1B (bait, IN format) (from UniProt P46527 1-198)”, the PLU mean in test [12] was found to be 0.229; in [8], 0.686.

Substance “HBA2 (bait, IN format) (from UniProt P69905 1-142)” returned a PLU mean in test [13] of 0.171.

Turning to “HDAC1 (bait, IN format) (from UniProt Q13547 1-482) (enzyme)”, the PLU mean was found to be 0.54 in test [14], 0.222 in test [15], 0.492 in test [7] and 0.247 in test [16].

Consider “ERBB3 (bait, IN format) (from UniProt P21860 20-1342) (receptor)”, for which the PLU mean in test [17] is 0.0812; in [18], 0.28; in test [19], 1.22.

Turning to “CGA (bait, IN format) (from UniProt P01215 25-116) (ligand)”, the PLU mean in test [10] stood at 0.0738; in test [20] it was 0.131; in test [21], 0.435; in [22] it was 0.0363.

“FEN1 (bait, IN format) (from UniProt P39748 1-380) (enzyme)”: the PLU mean was determined as 0.349 in test [17] and 0.342 in test [23].

In the case of “SMAD4 (bait, IN format) (from UniProt Q13485 1-552)”, the results for the PLU mean in test [24] and in [15] were 0.398 and 0.215, respectively.
